Consider 5 substances from patent publication US20120149636A1.

For assay [1], the target named is T1, full length rat GHR (L43R) on BAF3 cells (rat) (UniProt P16310).
T1 sequence (looked up): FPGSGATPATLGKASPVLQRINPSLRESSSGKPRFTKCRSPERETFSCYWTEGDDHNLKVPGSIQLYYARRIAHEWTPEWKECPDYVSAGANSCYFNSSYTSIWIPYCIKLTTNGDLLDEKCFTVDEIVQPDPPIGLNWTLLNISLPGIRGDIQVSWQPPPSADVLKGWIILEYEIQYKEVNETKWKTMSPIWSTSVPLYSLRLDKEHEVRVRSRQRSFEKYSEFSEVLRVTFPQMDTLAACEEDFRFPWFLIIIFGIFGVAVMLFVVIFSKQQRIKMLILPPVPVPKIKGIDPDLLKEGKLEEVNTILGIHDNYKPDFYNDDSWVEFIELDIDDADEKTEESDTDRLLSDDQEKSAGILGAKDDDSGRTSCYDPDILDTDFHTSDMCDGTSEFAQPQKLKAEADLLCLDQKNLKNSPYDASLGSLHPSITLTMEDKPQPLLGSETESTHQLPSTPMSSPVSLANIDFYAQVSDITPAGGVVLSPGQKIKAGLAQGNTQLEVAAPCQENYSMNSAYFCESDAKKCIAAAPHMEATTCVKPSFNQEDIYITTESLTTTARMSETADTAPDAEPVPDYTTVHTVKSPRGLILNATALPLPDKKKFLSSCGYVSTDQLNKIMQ
The experiment in a line: cell-based or functional assay.

The target in assay [2] is human growth hormone receptor on IM-9 cells (human) (UniProt P10912). The assay is described as follows: cell-based or functional assay.
UniProt P10912, sequence (P10912 19-638): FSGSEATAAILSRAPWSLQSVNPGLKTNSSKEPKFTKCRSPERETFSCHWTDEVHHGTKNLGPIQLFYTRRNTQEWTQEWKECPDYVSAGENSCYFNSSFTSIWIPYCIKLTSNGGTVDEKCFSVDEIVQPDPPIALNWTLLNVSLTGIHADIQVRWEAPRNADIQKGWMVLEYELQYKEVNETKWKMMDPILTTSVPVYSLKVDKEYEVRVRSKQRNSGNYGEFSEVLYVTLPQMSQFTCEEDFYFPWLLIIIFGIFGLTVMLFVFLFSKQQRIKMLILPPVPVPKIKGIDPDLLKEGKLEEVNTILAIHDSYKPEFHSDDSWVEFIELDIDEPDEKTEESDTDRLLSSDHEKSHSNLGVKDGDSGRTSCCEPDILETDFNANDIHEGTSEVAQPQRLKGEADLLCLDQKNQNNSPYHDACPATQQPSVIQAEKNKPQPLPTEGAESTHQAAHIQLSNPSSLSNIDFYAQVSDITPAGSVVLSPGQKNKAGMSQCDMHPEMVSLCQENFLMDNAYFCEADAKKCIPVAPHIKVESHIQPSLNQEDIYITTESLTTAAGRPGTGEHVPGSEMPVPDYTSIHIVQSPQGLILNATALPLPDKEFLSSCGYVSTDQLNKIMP

In assay [1], “G131pAF-30KPEG (from UniProt P01241 27-217) (ligand)” had a Proliferation EC50 (BrdU), WHO hGH expressed as unity (relative, WHO hGH = 1 (head prints nM)) of 4.6. The substance also returned a pSTAT5 EC50 (IM-9), WHO hGH expressed as unity (relative, WHO hGH = 1 (head prints nM)) in assay [2] of 23.8.
In turn, “R134pAF-20KPEG (from UniProt P01241 27-217) (ligand)” returned a pSTAT5 EC50 (IM-9), WHO hGH expressed as unity (relative, WHO hGH = 1 (head prints nM)) in assay [2] of 5.3.
As for “K145pAF-30KPEG (from UniProt P01241 27-217) (ligand)”, the Proliferation EC50 (BrdU), WHO hGH expressed as unity (relative, WHO hGH = 1 (head prints nM)) in assay [1] amounted to 5.3. In addition, in assay [2], the pSTAT5 EC50 (IM-9), WHO hGH expressed as unity (relative, WHO hGH = 1 (head prints nM)) turned out to be 20.6.
“Y35pAF-40KPEG (from UniProt P01241 27-217) (ligand)” had a Proliferation EC50 (BrdU), WHO hGH expressed as unity (relative, WHO hGH = 1 (head prints nM)) in assay [1] of 24. In addition, the pSTAT5 EC50 (IM-9), WHO hGH expressed as unity (relative, WHO hGH = 1 (head prints nM)) in assay [2] worked out at 53.3.
For “Y143pAF-30KPEG (from UniProt P01241 27-217) (ligand)”, in that order: 6.6 and 12.3.
